This note sets out measurements from patent US20200377587A1 (NANTBIO, published 2020).

Experiment [1] deals with T1, IL-8 (UniProt P10145 28-99, limits assumed).
T1 construct: also called Interleukin-8; immobilized IL-8
T1 sequence (looked up): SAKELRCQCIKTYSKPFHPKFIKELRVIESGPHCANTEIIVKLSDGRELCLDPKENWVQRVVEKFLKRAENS
Description: SPR, IgG1, 25 C, pH 7.4, preliminary KD. From the text: (§1) The inventors contemplate that the binding affinities of the scFv, recombinant antibody or fragment thereof, to IL-8 may be different due to the structural differences even if the scFv, recombinant antibody or fragment thereof, are generated using the same amino acid sequences of VH segment and/or VL segments. For example, Table 2 provides different affinities (measured in KD value) of scFv and recombinant antibody (IgG1) of several clones. Clone 49-31 is a scFv or a recombinant antibody (IgG1) generated using amino acid sequences encoding VH segment (SEQ ID No. 1) and VL segment (SEQ ID No. 16), Clone 43-2 is a scFv or a recombinant antibody (IgG1) generated using amino acid sequences encoding VH segment (SEQ ID No. 8) and VL segment (SEQ ID No. 23), and Clone 43-12 is a scFv or a recombinant antibody (IgG1) generated using amino acid sequences encoding VH segment (SEQ ID No.10) and VL segment (SEQ ID No. 25). Preliminary KD values are determined by surface plasmon resonance measurement, and highest and lowest values are shown to estimate the range of the affinities to IL-8.
For orientation: SPR reads the build-up and loss of mass on a sensor chip optically.

Experiment [2] has as its target T1, IL-8. Description: SPR, immobilized IL-8, IgG, 37 C. How it is done: (§2) Here, scFv and corresponding humanized IgG₁ were prepared using the sequences as indicated, and KD was determined using SPR with immobilized IL-8 as […] on the chip surface. All values are expressed as nanoM values at temperatures as indicated.
Experiment [3] deals with T1, IL-8. Description: SPR, immobilized IL-8, IgG1, 25 C. On the procedure: as §2
The target in experiment [4] is T1, IL-8. Description: SPR, IgG1, 37 C, pH 7.4, preliminary KD, lowest and highest value.
Description: as §1

Experiment [5] has as its target T1, IL-8. Description: SPR, immobilized IL-8, scFv, 25 C. On the procedure:
as §2

The target in experiment [6] is T1, IL-8. Description: SPR, IgG1, 37 C, pH 7.4, preliminary KD; IgG1, 37 C, pH 7.4.
Description: as §1

The target of experiment [7] is T1, IL-8. Description: SPR, IgG1, 25 C, pH 7.4, preliminary KD, lowest and highest value; lowest value of the range; IgG1, 25 C, pH 7.4.
Description: as §1

For experiment [8], the target named is T1, IL-8. Description: SPR, IgG1, 25 C, pH 6.0, preliminary KD, lowest and highest value.
Description: as §1

Experiment [9] has as its target T1, IL-8. Put plainly: SPR, scFv, preliminary KD.
Description: as §1

For experiment [10], the target named is T1, IL-8. Put plainly: SPR, upper panel; no pH label is printed on this sheet (the upper panel of Fig.4A is pH7.4; the text names pH 7.4 and pH 6.0). How it is done:
(§3) In yet another set of experiments, the inventors used affinity maturation (here: random mutagenesis of CDR regions in VH and VL chains and mRNA display selection) of one previously identified IL-8 binder (here: 43-12, sequence in Table 1), and SPR analysis was performed on selected mutant forms using two different pH conditions, pH 7.4 and pH 6.0.

In experiment [11] the target is T1, IL-8. Put plainly: SPR, lower panel; no pH label is printed on this sheet (the lower panel of Fig.4A is pH6.0; the text names pH 7.4 and pH 6.0). How it is done:
as §3

Experiment [12] concerns the target T1, IL-8. Description: SPR, IgG1, 25 C, pH 7.4, preliminary KD, lowest and highest value.
Description: as §1

The target of experiment [13] is T1, IL-8. Put plainly: SPR, IgG1, 37 C, pH 7.4, preliminary KD.
Description: as §1

Where “and” joins values, the source holds several entries; their conditions need not be identical. Equal values may be shown once.

B1: recombinant antibody (IgG1) 43-2 (antibody, V domains shown)
VH: EVQLVESGGGLVQPGGSLRLSCAASGFTFSSYAMHWVRQAPGKGLEWVSAISGSGGKTYYADSVKGRFTISRDNSKNTLYLQMNSLRAEDTAVYYCARDREAPFYTVYVTGFDVWGQGTLVTVSS
VL: DIQMTQSPSSLSASVGDRVTITCQASQDISNYLNWYQQKPGKAPKLLIYDASNLETGVPSRFSGSGSGTDFTFTISSLQPEDIATYYCQQDADTPLTFGQGTKVEIK
notes: IgG1 ('corresponding humanized IgG1'); also called 43-2 IgG1; Clone 43-2
By Kd is commonly meant the concentration at which binding is half-saturated. Higher therefore signals a looser complex. Regarding B1, the dissociation constant Kd with IL-8 [1] was 0.79 nM; in the experiment with IL-8 [2] it was 0.72 to 0.89 nM; with IL-8 [3] it was 0.79 nM; with IL-8 [4], 0.72 nM and 0.89 nM.

B2: scFv 49-22 (scFv, V domains shown)
VH: EVQLVESGGGLVQPGGSLRLSCAASGFTFTSYAMHWVRQAPGKGLEWVSAISGSGGSTYYADSVKGRFTISRDNSKNTLYLQMNSLRAEDTAVYYCARDLDMFVPFWPAFDVWGQGTLVTVSS
VL: DIQMTQSPSSLSASVGDRVTITCQASQDISNYLNWYQQKPGKAPKLLIYDASNLETGVPSRFSGSGSGTDFTFTISSLQPEDIATYYCQQASDTPLTFGQGTKVEIK
notes: also called Clone 49-22
On to B2, for which the Kd in the experiment with IL-8 [5] was in the range of 0.11 to 0.114 nM.

B3: recombinant antibody (IgG1) 49-31 (antibody, V domains shown)
VH: EVQLVESGGGLVQPGGSLRLSCAASGFTFSSYYMHWVRQAPGKGLEWVSAISGGGSSTYYADSVKGRFTISRDNSKNTLYLQMNSLRAEDTAVYYCARDLRIFEGRDAGFDVWGQGTLVTVS
VL: DIQMTQSPSSLSASVGDRVTITCQASQDISNYLNWYQQKPGKAPKLLIYDASNLETGVPSRFSGSGSGTDFTFTISSLQPEDIATYYCQQDDDVPWTFGQGTKVEIK
notes: IgG1 ('corresponding humanized IgG1'); also called 49-31 IgG1; Clone 49-31
For the molecule B3, the dissociation constant (Kd) was 0.117 nM with IL-8 [6]; 0.009 to 0.25 nM with IL-8 [7]; 0.12 nM with IL-8 [2]; 0.099 to 0.25 nM with IL-8 [3]; 0.21 to 0.22 nM with IL-8 [8].

B4: scFv 43-2 (scFv, V domains shown)
VH: EVQLVESGGGLVQPGGSLRLSCAASGFTFSSYAMHWVRQAPGKGLEWVSAISGSGGKTYYADSVKGRFTISRDNSKNTLYLQMNSLRAEDTAVYYCARDREAPFYTVYVTGFDVWGQGTLVTVSS
VL: DIQMTQSPSSLSASVGDRVTITCQASQDISNYLNWYQQKPGKAPKLLIYDASNLETGVPSRFSGSGSGTDFTFTISSLQPEDIATYYCQQDADTPLTFGQGTKVEIK
notes: also called Clone 43-2
Take B4: the Kd in the experiment with IL-8 [9] and in the experiment with IL-8 [5] was 1.41 nM in each case.

B5: scFv 49-34 (scFv, V domains shown)
VH: EVQLVESGGGLVQPGGSLRLSCAASGFTLGSYAMHWVRQAPGKGLEWVSAISGSGGSTYYADSVKGRFTISRDNSKNTLYLQMNSLRAEDTAVYYCARDRDTVSIEVGFDVWGQGTLVTVSS
VL: DIQMTQSPSSLSASVGDRVTITCQASQDISNYLNWYQQKPGKAPKLLIYDASNLETGVPSRFSGSGSGTDFTFTISSLQPEDIATYYCQQDSAFPLTFGQGTKVEIK
notes: also called Clone 49-34
On to B5, for which the equilibrium dissociation constant (Kd) with IL-8 [5] is 0.44 to 0.62 nM.

B6: scFv 49-3 (scFv, V domains shown)
VH: EVQLVESGGGLVQPGGSLRLSCAASGFTFSSYAMTWVRQAPGKGLEWVSVISGSGGSTRYADSVKGRFTISRDNSKNTLYLQMNSLRAEDTAVYYCARDRKFPYVQFFRNGFDVWGQGTLVTVSS
VL: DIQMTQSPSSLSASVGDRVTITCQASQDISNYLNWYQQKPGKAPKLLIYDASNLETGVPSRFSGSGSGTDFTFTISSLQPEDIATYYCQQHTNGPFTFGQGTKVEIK
notes: also called Clone 49-3
Take B6: in the experiment with IL-8 [5], binding was put at a Kd of 1.26 nM. This lies in the single-digit nanomolar range.

B7: IgG1 49-3 (antibody, V domains shown)
VH: EVQLVESGGGLVQPGGSLRLSCAASGFTFSSYAMTWVRQAPGKGLEWVSVISGSGGSTRYADSVKGRFTISRDNSKNTLYLQMNSLRAEDTAVYYCARDRKFPYVQFFRNGFDVWGQGTLVTVSS
VL: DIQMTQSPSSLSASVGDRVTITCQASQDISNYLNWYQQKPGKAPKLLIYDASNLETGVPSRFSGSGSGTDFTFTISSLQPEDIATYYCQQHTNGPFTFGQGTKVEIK
notes: also called 49-3 IgG1; Clone 49-3
In the case of B7, the equilibrium dissociation constant (Kd) was 9.19 nM with IL-8 [2] and 2.14 nM with IL-8 [3].

B8: scFv 49-7 (scFv, V domains shown)
VH: EVQLVESGGGLVQPGGSLRLSCAASGFTFSSYAMHWVRQAPGKGLEWVSAISNSGASTYYADSVKGRFTISRDNSKNTLYLQMNSLRAENTAVYYCARDLMRWWIDGFDVWGQGTLVTVSS
VL: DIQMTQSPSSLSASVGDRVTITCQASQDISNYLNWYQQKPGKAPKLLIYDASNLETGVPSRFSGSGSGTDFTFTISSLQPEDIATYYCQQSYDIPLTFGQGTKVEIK
notes: also called Clone 49-7
In the experiment with IL-8 [5], B8 displayed a Kd of 0.087 to 0.17 nM.

B9: scFv 49-18 (scFv, V domains shown)
VH: EVQLVESGGGLVQPGGSLRLSCAASGFTFSSYAMNWVRQAPGKGLEWVSAISWSGGNTYYADSVKGRFTISRDNSKNTLYLQMNSLRAEDTAVYYCARDLYAGYWGFDVWGQGTLVTVSS
VL: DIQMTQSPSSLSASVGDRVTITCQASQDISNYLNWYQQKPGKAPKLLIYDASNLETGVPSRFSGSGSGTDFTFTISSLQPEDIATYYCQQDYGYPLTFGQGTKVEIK
notes: also called Clone 49-18
Molecule B9 returned a Kd with IL-8 [5] of 0.41 to 0.89 nM.

B10: scFv 49-32 (scFv, V domains shown)
VH: EVQLVESGGGLVQPGGSLRLSCAASGFTFSSYAMHWVRQAPGKGLEWVSAIYGNGGSTYYADSVKGRFTISRDNSKNTLYLQMNSLRAEDTAVYYCARDLYTIEPREAFDVWGQGTLVTVSS
VL: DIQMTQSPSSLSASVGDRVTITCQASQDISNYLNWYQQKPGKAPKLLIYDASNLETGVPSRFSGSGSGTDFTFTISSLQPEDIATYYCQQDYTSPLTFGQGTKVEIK
notes: also called Clone 49-32
In turn, B10 registered a dissociation constant (Kd) in the experiment with IL-8 [5] of 0.21 to 0.24 nM.

B11: IgG1 49-32 (antibody, V domains shown)
VH: EVQLVESGGGLVQPGGSLRLSCAASGFTFSSYAMHWVRQAPGKGLEWVSAIYGNGGSTYYADSVKGRFTISRDNSKNTLYLQMNSLRAEDTAVYYCARDLYTIEPREAFDVWGQGTLVTVSS
VL: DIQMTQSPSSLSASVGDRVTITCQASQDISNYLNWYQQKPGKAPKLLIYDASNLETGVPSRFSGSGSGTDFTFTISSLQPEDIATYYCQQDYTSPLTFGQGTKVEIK
notes: also called 49-32 IgG1; Clone 49-32
In the case of B11, the dissociation constant Kd with IL-8 [2] fell in the range of 0.33 to 0.36 nM; with IL-8 [3], 0.77 to 0.87 nM.

B12: scFv 43-12b (scFv, V domains shown)
VH: EVQLVESGGGLVQPGGSLRLSCAASGFTFSSYLMHWVRQAPGKGLEWVSAISGSGGITYYADSVKGRFTISRDNSKNTLYLQMNSLRAEDTAVYYCARDREGWFWHSYGFDVWGQGTLVTVSS
VL: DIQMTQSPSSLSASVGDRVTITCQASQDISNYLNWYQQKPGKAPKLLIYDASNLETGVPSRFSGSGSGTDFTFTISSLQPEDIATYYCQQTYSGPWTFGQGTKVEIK
notes: Derived from 43-12 by random mutagenesis of the CDRs and mRNA display
As a reminder, the koff is a measure of how fast the partners let go of each other. A higher koff goes with fast dissociation. What is called kon is a measure of how fast the partners come together. Read a high kon as fast association. In the experiment with IL-8 [10], B12 returned a Kd of 2 nM, a koff of 0.0002 s⁻¹ and an on-rate (kon) of 100000 M⁻¹ s⁻¹. In the experiment with IL-8 [11], this molecule had a dissociation constant Kd of 2.3 nM, a koff of 0.00076 s⁻¹ and an association rate constant (kon) of 330000 M⁻¹ s⁻¹.

B13: recombinant antibody (IgG1) 43-12 (antibody, V domains shown)
VH: EVQLVESGGGLVQPGGSLRLSCAASGFTFSSYLMHWVRQAPGKGLEWVSAISGSGGSTYYADSVKGRFTISRDNSKNTLYLQMNSLRAEDTAVYYCARDREGWFWHSYGFDVWGQGTLVTVSS
VL: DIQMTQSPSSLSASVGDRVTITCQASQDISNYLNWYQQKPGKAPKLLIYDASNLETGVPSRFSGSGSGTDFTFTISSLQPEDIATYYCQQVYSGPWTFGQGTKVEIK
notes: IgG1 ('corresponding humanized IgG1'); also called 43-12 IgG1; Clone 43-12
As for B13, the Kd in the experiment with IL-8 [2] is 0.31 nM; with IL-8 [3] it was 0.43 to 0.78 nM; with IL-8 [8], 3.46 to 6.7 nM; in the experiment with IL-8 [12] it was 0.43 to 0.78 nM; in the experiment with IL-8 [13], 0.31 nM.
